Reference: patent US11407811B2, “Fusion protein, preparation method therefor and use thereof” (JIANGSU RONGTAI BIOTECH CO., LTD., priority 2017, dated 2022)

Experiments:
liver cancer cell Hep-G2 = assay: MTT assay, proliferation of liver cancer cell Hep-G2; type: cell-based
Experimental: (§1) The MTT assay was used to detect the inhibitory effect of the integrin blocker fusion protein obtained in Example 1 on the proliferation of various tumor cells, including melanoma cell B16F10, gastric cancer cell MGC-803, lung cancer cell A549, liver cancer cell Hep-G2, breast cancer cell MDA-MB-231, colon cancer cell HCT-116, human glioma U87, and cervical cancer cell Hela.
(§2) The tumor cells were cultured in a 5% CO2 incubator at 37° C. to a density of 90% or more, and collected by trypsinization. The cells were resuspended in the culture liquid and counted under a microscope. The cell concentration was adjusted to 3.0×10^4 cells/mL. The cell suspension was inoculated into a 96-well plate at 100 μL per well and cultured overnight in a 5% CO2 incubator at 37° C. […] After the cells were fully adhered, each dilution was added to a 96-well plate at 100 μL per well, respectively. […] 20 μL of 5 mg/mL MTT was added to each well of a 96-well plate, and incubation was continued for 4 hours. The medium was aspirated and 100 μL of DMSO per well were added to dissolve. The absorbance was measured at 570 nm with a microplate reader with a reference wavelength of 630 nm, and the proliferation inhibition (PI) was calculated. The formula is as follows: […]
(§3) where Ntest is the OD value of the test group and Ncontrol is the OD value of the blank control group.
(§4) The test was repeated 5 times independently. The results obtained from the test were calculated as mean±SD, and statistical t-test was performed. P<0.05 was considered as a significant difference, and P<0.01 was considered as an extremely significant difference.

[1] = tested on: breast cancer cell MDA-MB-231; assay: MTT assay, proliferation of breast cancer cell MDA-MB-231; type: cell-based
Experimental: as §1, §2, §3, §4

[2] = tested on: adjuvant arthritis in rat; assay: Chronic inflammation of adjuvant arthritis in rat; type: in vivo; design: key to Clinical score Whole body: sum of hind/fore foot, ear, nose, tail scores; full score 8; conditions: for Clinical score Whole body: full score 8; for Foot swelling degree Left: left hind foot (primary inflammation); for Clinical score Arthritis index: maximum score 16; for Foot swelling degree Right: right foot (secondary inflammation)
Experimental: 80 SPF SD rats were randomly divided into 8 groups. Rats in each group were lightly anesthetized with ether. Then, 0.1 mL of complete Freund's adjuvant containing inactivated Mycobacterium tuberculosis was injected subcutaneously into the left hind foot of the rats. Primary arthritis occurred in the left hind foot of the rat, and at about 13 days post-modeling, secondary arthritis occurred in the right hind foot. A blank control group was injected with an equal volume of physiological saline. The drug was administered 13 days after modeling. A methotrexate group was administered by injection every 5 days for 15 days, 4 times in total; the fusion protein I, protein II, protein III, protein IV, and protein V at high, medium and low doses (128 mg/kg, 32 mg/kg, 8 mg/kg) were administered by injection every 5 days for 15 days.
Using a foot volume measuring method, a marker was made with a fat-soluble marker at the left and right posterior ankle joint of each rat, and the left and right hind feet of the animal were respectively immersed in the volume measuring device. The immersion depth was bounded by the marker, and the reading value at the scale pipette of the device was the initial volume of the animal's left and right hind feet.
The day of modeling was considered as the 0th day and recorded as d0. The volume of the left hind foot (modeling foot) was measured from the first day d1 after modeling every 2 days. When the swelling occurred (i.e., secondary arthritis occurred) at the contralateral non-inflammatory foot (right hind foot), the administration was started. The volume of the left and right hind feet was measured every 2 days, and the degree of primary and secondary toe swelling was determined, which was calculated as follows:
Primary toe swelling (mL)=left hind foot volume on the day of measurement-initial volume of left hind foot
Secondary toe swelling (mL)=right hind foot volume on the day of measurement-initial volume of right hind foot 2. Clinical score
Systemic score: the systemic score was taken every 2 days after the onset of secondary inflammation.
Hind foot: no swelling=0 score, one hind foot swelling=1 score, two hind feet swelling=2 scores;
Forefoot: no swelling=0 score, one forefoot swelling=1 score, two forefeet swelling=2 scores;
Ear: no redness and nodules=0 score, redness or nodules in one ear=1 score, redness and nodules in both ears=2 scores;
Nose: no swelling=0 score, obvious swelling=1 score;
Tail: no nodules=0 score, with nodules=1 score; full score was 8 scores.
Arthritis index score: the arthritis index score was performed every 2 days after the onset of secondary inflammation.
The initial body weight of each group of rats was weighed before modeling. The body weight was measured every 2 days from d1 after modeling, from which the initial body weight was subtracted to obtain the weight gain of each group of rats.

[3] = tested on: gastric cancer cell MGC-803; assay: MTT assay, proliferation of gastric cancer cell MGC-803; type: cell-based
Experimental: as §1, §2, §3, §4

B1: Protein II: IgG2-Fc linked to antiangiogenesis polypeptide EDSM-Y via a flexible linker; SEQ ID NO: 17 (protein)
chain: ERKCCVECPPCPAPPVAGPSVFLFPPKPKDTLMISRTPEVTCVVVDVSHEDPEVQFNWYVDGVEVHNAKTKPREEQFNSTFRVVSVLTVVHQDWLNGKEYKCKVSNKGLPAPIEKTISKTKGQPREPQVYTLPPSREEMTKNQVSLTCLVKGFYPSDISVEWESNGQPENNYKTTPPMLDSDGSFFLYSKLTVDKSRWQQGNVFSCSVMHEALHNHYTQKSLSLSPGKGGGGSGGGGSGGGGSFQPVLHLVALNSPLSGGMRGIRGADFQCFQQARAVGLAGTFRAGGGGRGD
- A570 nm/A630 nm (liver cancer cell Hep-G2; dose 1 μg/mL): 0.6746 ± 0.0372
- PI (%) (liver cancer cell Hep-G2; dose 1 μg/mL): 1.49%
- A570 nm/A630 nm (liver cancer cell Hep-G2; dose 2 μg/mL): 0.6132 ± 0.0253
- PI (%) (liver cancer cell Hep-G2; dose 2 μg/mL): 10.46%
- A570 nm/A630 nm (liver cancer cell Hep-G2; dose 4 μg/mL): 0.5799 ± 0.0396
- PI (%) (liver cancer cell Hep-G2; dose 4 μg/mL): 15.32%
- A570 nm/A630 nm (liver cancer cell Hep-G2; dose 8 μg/mL): 0.5499 ± 0.0215
- PI (%) (liver cancer cell Hep-G2; dose 8 μg/mL): 19.70%
- A570 nm/A630 nm (liver cancer cell Hep-G2; dose 16 μg/mL): 0.5190 ± 0.0185
- PI (%) (liver cancer cell Hep-G2; dose 16 μg/mL): 24.21%
- A570 nm/A630 nm (liver cancer cell Hep-G2; dose 32 μg/mL): 0.4706 ± 0.0374
- PI (%) (liver cancer cell Hep-G2; dose 32 μg/mL): 31.28%
- A570 nm/A630 nm (liver cancer cell Hep-G2; dose 64 μg/mL): 0.4256 ± 0.0268
- PI (%) (liver cancer cell Hep-G2; dose 64 μg/mL): 37.85%
- A570 nm/A630 nm (liver cancer cell Hep-G2; dose 128 μg/mL): 0.3801 ± 0.0174
- PI (%) (liver cancer cell Hep-G2; dose 128 μg/mL): 44.49%
- A570 nm/A630 nm (liver cancer cell Hep-G2; dose 256 μg/mL): 0.3156 ± 0.0151
- PI (%) (liver cancer cell Hep-G2; dose 256 μg/mL): 53.91%
- inhibitory effect on liver cancer cell Hep-G2 (liver cancer cell Hep-G2; in words): a certain inhibitory effect
- A570 nm/A630 nm ([1]; dose 1 μg/mL): 0.9859 ± 0.0397
- PI (%) ([1]; dose 1 μg/mL): 5.09%
- A570 nm/A630 nm ([1]; dose 2 μg/mL): 0.9552 ± 0.0419
- PI (%) ([1]; dose 2 μg/mL): 8.05%
- A570 nm/A630 nm ([1]; dose 4 μg/mL): 0.9150 ± 0.0283
- PI (%) ([1]; dose 4 μg/mL): 11.92%
- A570 nm/A630 nm ([1]; dose 8 μg/mL): 0.8806 ± 0.0345
- PI (%) ([1]; dose 8 μg/mL): 15.23%
- A570 nm/A630 nm ([1]; dose 16 μg/mL): 0.8110 ± 0.0298
- PI (%) ([1]; dose 16 μg/mL): 21.93%
- A570 nm/A630 nm ([1]; dose 32 μg/mL): 0.7546 ± 0.0274
- PI (%) ([1]; dose 32 μg/mL): 27.36%
- A570 nm/A630 nm ([1]; dose 64 μg/mL): 0.6945 ± 0.0326
- PI (%) ([1]; dose 64 μg/mL): 33.14%
- A570 nm/A630 nm ([1]; dose 128 μg/mL): 0.6589 ± 0.0287
- PI (%) ([1]; dose 128 μg/mL): 36.57%
- A570 nm/A630 nm ([1]; dose 256 μg/mL): 0.6012 ± 0.0311
- PI (%) ([1]; dose 256 μg/mL): 42.13%
- Weight gain ([2]; 8 mg/kg): 44.96 ± 12.11 g
- Clinical score Whole body ([2]; 8 mg/kg): 2.23 ± 0.26
- Foot swelling degree Left ([2]; 8 mg/kg): 1.95 ± 0.12 mL
- Clinical score Arthritis index ([2]; 8 mg/kg): 6.92 ± 0.55
- Foot swelling degree Right ([2]; 8 mg/kg): 1.77 ± 0.54 mL
- Weight gain ([2]; 32 mg/kg): 48.10 ± 9.19 g
- Clinical score Whole body ([2]; 32 mg/kg): 1.81 ± 0.32
- Foot swelling degree Left ([2]; 32 mg/kg): 1.60 ± 0.19 mL
- Clinical score Arthritis index ([2]; 32 mg/kg): 5.69 ± 0.37
- Foot swelling degree Right ([2]; 32 mg/kg): 1.54 ± 0.33 mL
- Weight gain ([2]; 128 mg/kg): 50.83 ± 15.19 g
- Clinical score Whole body ([2]; 128 mg/kg): 1.54 ± 0.19
- Foot swelling degree Left ([2]; 128 mg/kg): 1.35 ± 0.14 mL
- Clinical score Arthritis index ([2]; 128 mg/kg): 4.17 ± 0.64
- Foot swelling degree Right ([2]; 128 mg/kg): 1.35 ± 0.73 mL
- therapeutic effect on primary arthritis (primary toe swelling degree) ([2]; high dose groups, compared with the model group): effective
- A570 nm/A630 nm ([3]; dose 1 μg/mL): 1.1122 ± 0.0374
- PI (%) ([3]; dose 1 μg/mL): 8.98%
- A570 nm/A630 nm ([3]; dose 2 μg/mL): 1.0149 ± 0.0253
- PI (%) ([3]; dose 2 μg/mL): 16.94%
- A570 nm/A630 nm ([3]; dose 4 μg/mL): 0.8231 ± 0.0396
- PI (%) ([3]; dose 4 μg/mL): 32.64%
- A570 nm/A630 nm ([3]; dose 8 μg/mL): 0.7231 ± 0.0215
- PI (%) ([3]; dose 8 μg/mL): 40.82%
- PI (%) ([3]; dose 8 μg/mL, listed as protein II): about 40%
- A570 nm/A630 nm ([3]; dose 16 μg/mL): 0.5216 ± 0.0192
- PI (%) ([3]; dose 16 μg/mL): 57.31%
- A570 nm/A630 nm ([3]; dose 32 μg/mL): 0.4398 ± 0.0347
- PI (%) ([3]; dose 32 μg/mL): 64.01%
- A570 nm/A630 nm ([3]; dose 64 μg/mL): 0.3378 ± 0.0286
- PI (%) ([3]; dose 64 μg/mL): 72.35%
- A570 nm/A630 nm ([3]; dose 128 μg/mL): 0.2203 ± 0.0147
- PI (%) ([3]; dose 128 μg/mL): 81.97%
- A570 nm/A630 nm ([3]; dose 256 μg/mL): 0.0987 ± 0.0159
- PI (%) ([3]; dose 256 μg/mL): 91.92%
